{
  "source": "paper PMC4895218",
  "about": "“Structural flexibility of the periplasmic protein, FlgA, regulates flagellar P-ring assembly in Salmonella enterica” (Scientific Reports, 2016)",
  "key": {"[1]": {"biological_target": "T1, N-terminally His-tagged FlgI (Salmonella enterica serovar Typhimurium, UniProt P15930 20-365)", "T1 construct": "FlgI, flagellar P-ring component protein, Salmonella enterica serovar Typhimurium; Probably without its Sec signal peptide (surmise); also called His-FlgI; source: E. coli Origami2 (DE3), co-expressed, in cell extract (pull-down); purified (SPR); not shown: His tag, N-terminal, kept", "T1 sequence (looked up)": "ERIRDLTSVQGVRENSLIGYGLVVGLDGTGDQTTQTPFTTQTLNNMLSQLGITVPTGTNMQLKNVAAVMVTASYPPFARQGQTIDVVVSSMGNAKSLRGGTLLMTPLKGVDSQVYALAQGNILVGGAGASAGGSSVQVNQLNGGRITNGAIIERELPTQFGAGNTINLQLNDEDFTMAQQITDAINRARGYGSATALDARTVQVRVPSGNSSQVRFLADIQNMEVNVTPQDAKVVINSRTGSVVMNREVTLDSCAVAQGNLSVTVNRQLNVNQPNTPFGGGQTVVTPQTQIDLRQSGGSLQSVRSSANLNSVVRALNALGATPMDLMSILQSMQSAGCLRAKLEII", "experiment": "SPR; Biacore T200, 25 °C; FlgA or FlgA R113C-S190C immobilised on CM5 chip by amine coupling, FlgI as analyte; 10 mM HEPES, 150 mM NaCl, 0.05% Surfactant P20, pH 7.4; two-state reaction model", "conditions": "both partners purified"}, "[2]": {"biological_target": "T1, N-terminally His-tagged FlgI", "experiment": "SPR; Biacore T200, 25 °C; FlgI immobilised on CM5 chip by amine coupling, FlgA or FlgA R113C-S190C as analyte; 10 mM HEPES, 150 mM NaCl, 0.05% Surfactant P20, pH 7.4; two-state reaction model", "conditions": "both partners purified"}},
  "data": [
    {"binder": "FlgA_(R113C-S190C) (purified, histidine tag removed) (natural protein, engineered disulfide bond between C113 and C190, FlgA, Salmonella enterica serovar Typhimurium, with R113C and S190C; numbers count on: the mature protein; also called covalently closed form of FlgA; source: purified; N-terminal-fused histidine tag removed with thrombin prior to gel filtration; not shown: His tag, N-terminal, cleaved) QDINAQLTTWFSQRLAGFSDEVVVTLRSSPNLLPSCEQPAFSMTGSAKLWGNVNVVARCANEKRYLQVNVQATGNYVAVAAPIARGGKLTPANVTLKRGRLDQLPPRTVLDICQIQDAVSLRDLAPGQPVQLTMIRQAWRVKAGQRVQVIANGEGFSVNAEGQAMNNAAVAQNARVRMTSGQIVSGTVDCDGNILINL", "values": [
      {"measurement": "Kd", "setting": "[1]", "value": 166, "unit": "nM"},
      {"measurement": "Kd", "setting": "[2]", "value": 106, "unit": "nM"}
    ]},
    {"binder": "FlgA (purified, histidine tag removed) (natural protein, Salmonella enterica serovar Typhimurium, FlgA, Salmonella enterica serovar Typhimurium; numbers count on: the mature protein (Q1-L198); The crystallised FlgA was another construct (C-terminal hexa-histidine-tagged precursor purified from the periplasm of E. coli); source: purified; N-terminal-fused histidine tag removed with thrombin prior to gel filtration; not shown: His tag, N-terminal, cleaved) QDINAQLTTWFSQRLAGFSDEVVVTLRSSPNLLPSCEQPAFSMTGSAKLWGNVNVVARCANEKRYLQVNVQATGNYVAVAAPIARGGKLTPANVTLKRGRLDQLPPRTVLDIRQIQDAVSLRDLAPGQPVQLTMIRQAWRVKAGQRVQVIANGEGFSVNAEGQAMNNAAVAQNARVRMTSGQIVSGTVDSDGNILINL", "values": [
      {"measurement": "Kd", "setting": "[1]", "value": 354, "unit": "nM"},
      {"measurement": "Kd", "setting": "[2]", "value": 126, "unit": "nM"}
    ]}
  ]
}
